According to patent publication US9144596 (UNIVERSITY OF FLORIDA RESEARCH FOUNDATION, dated 2015):

B1: APCwt (amino acids 1190-1328) fused to the yeast Gal4 DNA-binding domain (pGBDU-C3-APCwt) (other)
chain: MKLLSSIEQACDICRLKKLKCSKEKPKCAKCLKNNWECRYSPKTKRSPLTRAHLTEVESRLERLEQLFLLIFPREDLDMILKMDSLQDIKALLTGLFVQDNVNKDAVTDRLASVETDMPLTLRQHRISATSSSEESSNKGQRQLTVSSQKQSFSFSKSSSGQSSKTEHMSSSSENTSTPSSNAKRQNQLHPSSAQSRSGQPQKAATCKVSSINQETIQTYCVEDTPICFSRCSSLSSLSSAEDEIGCNQTTQEADSANTLQIAEIKEKIGTRSAEDPVSEVPAVSQ
notes: Yeast two-hybrid bait, expressed in S. cerevisiae PJ69-4A; also called APC wild-type (wt)
B2: APC(I-A,Y-A) (amino acids 1200-1324; I1259A, Y1262A) fused to the yeast Gal4 DNA-binding domain (pGBDU-C3-APC(I-A,Y-A)) (other)
chain: SSSGQSSKTEHMSSSSENTSTPSSNAKRQNQLHPSSAQSRSGQPQKAATCKVSSINQETAQTACVEDTPICFSRCSSLSSLSSAEDEIGCNQTTQEADSANTLQIAEIKEKIGTRSAEDPVSEVP
notes: also called mutant APC (I-A,Y-A); mutant DRI-domain

Assays:
[1] = target: pol-βMut(Set-1) (T79A/K81A/R83A) fused to the yeast Gal4 activation domain (pGAD-C3-pol-βMut(Set-1)) (yeast; human, UniProt P06746 1-335); assay: yeast two-hybrid (growth on SD-ULH medium with 5 mM 3-amino-1,2,4-triazole)
[2] = target: pol-βwt (full-length DNA polymerase β) fused to the yeast Gal4 activation domain (pGAD-C3-pol-βwt) (yeast; human, UniProt P06746 1-335); assay: as above

| Binder | binding result [1] | binding result [2] |
| --- | --- | --- |
| B1 | no binding |  |
| B2 |  | no binding |
